Experimental data reported in US20210171624A1 (ELIXIRON IMMUNOTHERAPEUTICS HONG KONG, published 2021).

T1: recombinant human IFN-γ protein (human, UniProt P01579 24-166, limits assumed)
T1 sequence: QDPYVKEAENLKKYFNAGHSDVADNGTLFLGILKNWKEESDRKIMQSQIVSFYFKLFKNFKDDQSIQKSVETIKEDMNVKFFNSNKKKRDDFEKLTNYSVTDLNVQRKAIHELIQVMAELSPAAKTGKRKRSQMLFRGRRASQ

T2: rhesus macaque/cynomolgus IFN-γ (rhesus macaque/cynomolgus, UniProt P63310 24-165)
T2 construct: also called R&D systems 961-RM-025
T2 sequence (looked up): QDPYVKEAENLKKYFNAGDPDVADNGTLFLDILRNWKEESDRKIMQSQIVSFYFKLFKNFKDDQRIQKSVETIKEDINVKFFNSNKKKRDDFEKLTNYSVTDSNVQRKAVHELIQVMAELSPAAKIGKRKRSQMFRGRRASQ


Columns and labels:
[1] = target: T1, recombinant human IFN-γ protein; experiment: ELISA, biotinylated human IFN-γ on streptavidin plate, HRP anti-human IgG, OD 450-650 nm
Description: (§1) Recombinant human IFN-γ (R&D systems 285-IF-100) and Cynomolgus IFN-γ (R&D systems 961-RM-025) were biotinylated according to kit manual (EZ-Link NHS-LC-Biotin; Thermo #21336) and bound to streptavidin coated plate respectively. After incubated at room temperature for 1-2 hours, the plate was washed three times with 300 μL wash buffer. Serial dilutions of anti-IFN-γ antibody were added to wells. After incubated at room temperature for 1-2 hours, the plate was washed three times with 300 μL wash buffer. HRP anti-Human IgG was applied to each well at room temperature for 1 hour incubation. After washing, the plates were developed with TMB substrate, and analyzed under OD₄₅₀₋₆₅₀.

[2] = target: T1, recombinant human IFN-γ protein; experiment: BLI (Octet RED96), mAb captured on AHC biosensor, recombinant human IFN-γ in solution, 1:1 model; second experiment
Description: (§2) Antibody-binding kinetic rate constants (kₐ and kd) were measured by Bio-Layer Interferometry (BLI, ForteBio Octet RED96). […] Rate constants were calculated by curve fitting analyses (1:1 Langmuir model) of binding response with a 5-minute association and 15-minute dissociation interaction time.

[3] = target: T2, rhesus macaque/cynomolgus IFN-γ; experiment: ELISA, biotinylated rhesus macaque/cynomolgus IFN-γ on streptavidin plate, HRP anti-human IgG, OD 450-650 nm
Description: as §1

bovine serum albumin = target: T3, bovine serum albumin (bovine, UniProt P02769 25-607); experiment: ELISA, plate coated with 2 µg/mL BSA, anti-human IgG Fc-AP detection, OD 405 nm
T3 construct: also called BSA
T3 sequence (P02769 25-607 limits assumed): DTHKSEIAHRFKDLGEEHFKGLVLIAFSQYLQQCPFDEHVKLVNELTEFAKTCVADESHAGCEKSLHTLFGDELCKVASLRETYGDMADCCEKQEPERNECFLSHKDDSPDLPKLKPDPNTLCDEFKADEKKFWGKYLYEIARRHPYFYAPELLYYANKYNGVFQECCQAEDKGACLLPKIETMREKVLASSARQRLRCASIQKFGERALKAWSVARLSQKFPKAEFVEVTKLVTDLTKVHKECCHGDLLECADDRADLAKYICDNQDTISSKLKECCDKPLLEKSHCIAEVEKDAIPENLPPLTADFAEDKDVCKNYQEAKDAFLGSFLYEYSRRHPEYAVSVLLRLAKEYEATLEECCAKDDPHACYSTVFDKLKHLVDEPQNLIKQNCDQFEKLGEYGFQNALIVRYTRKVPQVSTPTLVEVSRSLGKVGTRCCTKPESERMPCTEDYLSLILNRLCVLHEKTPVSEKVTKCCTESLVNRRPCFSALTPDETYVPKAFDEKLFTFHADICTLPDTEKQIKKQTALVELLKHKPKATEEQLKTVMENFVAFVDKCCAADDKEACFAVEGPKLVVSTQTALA
Description: A clear polystyrene 96-well, flat-bottomed plate (Nunc) was coated with 100 μL of recombinant human IFN-γ protein (2 μg/mL) or BSA (2 μg/mL) in bicarbonate buffer (pH 9.6) per well and incubated at 4° C. overnight. The plate was washed three times using phosphate-buffered saline (PBS) with 0.05% Tween 20 and then blocked with 5% human normal serum albumin (Aventis) in PBS for 2 hours at 25° C. The plate was washed again using PBS with 0.05% Tween 20, after which each of 1E8, 2F2, 2A6, 2B6, AB and BA mAbs in two different concentrations of 1 μg/mL and 0.1 μg/mL were added into the wells of the plate for binding with the recombinant human IFN-γ protein, followed by reaction at 25° C. for 2 hours. The plate was thoroughly washed using PBS with 0.05% Tween 20, and then Fc-specific alkaline phosphatase-conjugated AffiniPure Goat anti-human IgG (Cappel) was added at a dilution ratio of 1:2500. The plate was placed for 90 minutes at 37° C. and then washed five times using PBS with 0.05% Tween 20. After adding p-Nitrophenyl phosphate (pNPP) solution (100 μL/well), the plate was placed at 37° C. for 30 minutes. Absorbance was determined at OD405 nm with a VICTOR X3 Multilabel Plate Reader (PerkinElmer).

[4] = target: T1, recombinant human IFN-γ protein; experiment: BLI (Octet RED96), mAb captured on AHC biosensor, recombinant human IFN-γ in solution, 1:1 model
Description: as §2

[5] = target: T1, recombinant human IFN-γ protein; experiment: cell-based or functional assay

Molecule	EC50 (read off the curve) [1] [ng/mL]	Kd [2] [nM]	koff [2] [s⁻¹]	kon [2] [M⁻¹ s⁻¹]	EC50 (read off the curve) [3] [ng/mL]	binding result (bovine serum albumin)	Kd [4] [nM]	koff [4] [s⁻¹]	kon [4] [M⁻¹ s⁻¹]	IC50, inhibition of IFN-γ induced HLA-DR expression on THP-1 cells [5] [ng/mL]	IC90, inhibition of IFN-γ induced HLA-DR expression on THP-1 cells [5] [ng/mL]
AMG811 (antibody)	5	0.0347	8.59e-05	2.48e+06							
antibody 2B6 (antibody, human IgG1, V domains shown, Human IgG1 lambda) VH: EVQLVESGGGLVKPGGSLRLSCAASGFPFSRYSMHWVRQAPGKGLEWVSSMTSRTNHKYYADSLKGRFLISRDNDRDSLYLEMNSLGVEDTAIYFCARGYDTSGSDSGVDFQYWGQGTLVTVSS VL: NFMLTQPHSVSESPGKTITISCTRGRGYIASYYVQWYQQRPGGVPKIVVFEDTQRPSGVPDRISGSIDTSTNSASLTISGLQTEDEADYYCQSYDDANHVIFGGGTKLTVL	~7	0.0172	5.4e-05	3.13e+06	~5	no binding (tested: 1.0 µg/mL)	0.0731	0.000108	1.48e+06	3.5	1020
antibody 1E8 (antibody, human IgG1, V domains shown, Human IgG1 lambda) VH: EVQLLESGGGLVQPGGPLRLSCAASGFTFSIYSMNWVRQAPGKGLEWVSSISGSGDNTYYADSVKGRFTITRDSSKNTLYLQMNTLRAEDTAVYFCAKSGRNIISPGFDSWGQGTLVTVSS VL: QPVLTQPPSASASLGASVTLTCTLNSDYGDYKVDWYQQRPGKGPRFVMRVGTGGIVGSKGDGIPDRFSVLGSGLNRFLTIKNIQEEDESDYYCGADHGSANNFIWVFGGGTKLTVL						no binding (tested: 1.0 µg/mL)	0.261	0.000121	464000	8.6	48.6
antibody 2A6 (antibody, human IgG1, V domains shown, partial N-linked glycosylation at Asn-76 of the VH, Human antibody from a single B cell, cloned into human IgG1 lambda expression vectors and made in FreeStyle 293-F cells) VH: EVQLVESGGGLVKPGDSLTVSCVASGFTFSNYFIHWVRQAPGKGLEWVATISGRTKYMFYSDSLRGRFTVSRDNANNSVYLHMSSLRGEDTALYYCVRGYDHSDSNSAADLLHWGRGTLVTVSS VL: NFMLTQPLSVSGYPGKTIVISCVRSSGSVASHYVQWFQQRPGSAPAMVIYEDSHRPSGIPDRFSGSVDASSNSASLTISGLKTEDEADYFCQSYYGNNQVLFGGGTKLTVL	~7	0.0187	4.9e-05	2.61e+06	~5	no binding (tested: 1.0 µg/mL)	0.0368	3.97e-05	1.08e+06	3.4	3850
antibody AB (antibody, human IgG1, V domains shown, Combination of the 2A6 VH heavy chain and the 2B6 VL light chain; human IgG1 lambda; also called VH2A6/VL2B6) VH: EVQLVESGGGLVKPGDSLTVSCVASGFTFSNYFIHWVRQAPGKGLEWVATISGRTKYMFYSDSLRGRFTVSRDNANNSVYLHMSSLRGEDTALYYCVRGYDHSDSNSAADLLHWGRGTLVTVSS VL: NFMLTQPHSVSESPGKTITISCTRGRGYIASYYVQWYQQRPGGVPKIVVFEDTQRPSGVPDRISGSIDTSTNSASLTISGLQTEDEADYYCQSYDDANHVIFGGGTKLTVL	~7	0.025	5.46e-05	2.19e+06	~5	no binding (tested: 1.0 µg/mL)					
antibody BA (antibody, human IgG1, V domains shown, Combination of the 2B6 VH heavy chain and the 2A6 VL light chain; human IgG1 lambda; also called VH2B6/VL2A6) VH: EVQLVESGGGLVKPGGSLRLSCAASGFPFSRYSMHWVRQAPGKGLEWVSSMTSRTNHKYYADSLKGRFLISRDNDRDSLYLEMNSLGVEDTAIYFCARGYDTSGSDSGVDFQYWGQGTLVTVSS VL: NFMLTQPLSVSGYPGKTIVISCVRSSGSVASHYVQWFQQRPGSAPAMVIYEDSHRPSGIPDRFSGSVDASSNSASLTISGLKTEDEADYFCQSYYGNNQVLFGGGTKLTVL						no binding (tested: 1.0 µg/mL)					
antibody 2A6_A (antibody, human IgG1, V domains shown, removes the N-glycosylation site of the VH; human IgG1 lambda; also called c2A6_A) VH: EVQLVESGGGLVKPGDSLTVSCVASGFTFSNYFIHWVRQAPGKGLEWVATISGRTKYMFYSDSLRGRFTVSRDNAANSVYLHMSSLRGEDTALYYCVRGYDHSDSNSAADLLHWGRGTLVTVSS VL: NFMLTQPLSVSGYPGKTIVISCVRSSGSVASHYVQWFQQRPGSAPAMVIYEDSHRPSGIPDRFSGSVDASSNSASLTISGLKTEDEADYFCQSYYGNNQVLFGGGTKLTVL	~7	0.0223	5.17e-05	2.32e+06	~5						
antibody 2A6_Q (antibody, human IgG1, V domains shown, removes the N-glycosylation site of the VH; human IgG1 lambda; also called c2A6_Q) VH: EVQLVESGGGLVKPGDSLTVSCVASGFTFSNYFIHWVRQAPGKGLEWVATISGRTKYMFYSDSLRGRFTVSRDNAQNSVYLHMSSLRGEDTALYYCVRGYDHSDSNSAADLLHWGRGTLVTVSS VL: NFMLTQPLSVSGYPGKTIVISCVRSSGSVASHYVQWFQQRPGSAPAMVIYEDSHRPSGIPDRFSGSVDASSNSASLTISGLKTEDEADYFCQSYYGNNQVLFGGGTKLTVL	~7	0.0217	5.23e-05	2.41e+06	~5						
antibody 2F2 (antibody, human IgG1, V domains shown, Human IgG1 lambda) VH: EVQLVESGGGLVKPGESLRLACVASGFNFSDYYMTWIRQAPGKGLEWVSYISNSGSHTYYADAVKGRFTVSRDNAKNSLYLQMTSLRGEDTAIYFCARDPSIMRGTYYMDVWGKGTTVTVSS VL: QSVLTQPPSASGTPGQRVTISCSGSSSNIGTNPVSWYQQFPGMAPKLLIYFNNQRPSGVPERFSGSKSGTPASLAIGGLQSEDEANYYCASWDDTLNGLVFGGGTKLTVL						no binding (tested: 1.0 µg/mL)	0.317	0.000109	344000	36.1	508
